According to patent US20260242735A1 (UNIVERSIT T BASEL, published 2026):

Assays:
Test in all cases: alanine scan, flow cytometry;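 also: HEK293-T cells transiently expressing single-residue alanine mutants of CD33 (alanine swapped to serine), antibody binding read by fluorescence in duplicate, background-subtracted, expressed relative to wild-type CD33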
human CD33 V82A = human CD33 V82A (human, UniProt P20138 18-364)
Protocol: (§1) An alanine scan on human CD33 was performed to the determine the residues on CD33 that are involved in binding to the antibodies investigated. […] Briefly, a mutation library of CD33 was created by high-throughput, site-directed mutagenesis. Each residue was individually mutated to alanine, with alanine codons mutated to serine. The mutant library was arrayed in 384-well microplates and transiently transfected into HEK293-T. Following transfection, cells were incubated with the indicated antibodies (IgG or Fab) at concentrations pre-determined using an independent immunofluorescence titration curve on wild type CD33. […] Binding of each antibody to each mutant clone was determined in duplicates. For each point, background fluorescence was subtracted from the raw data, which were then normalized to antibody reactivity with wild type CD33.
(§2) Critical residues for antibody binding (outlined in dark grey) were residues whose mutations led to a binding of the test Abs of less than 20%. Additional secondary residues (outlined in light grey) were identified that led to a binding of the test Abs of between 20 and 40% as compared to the wild type CD33.

human CD33 E85A = human CD33 E85A (human, UniProt P20138 18-364)
Protocol: as §1, §2

human CD33 Q87A = human CD33 Q87A (human, UniProt P20138 18-364)
Chain of human CD33 Q87A (P20138 18-364 Q87A limits assumed): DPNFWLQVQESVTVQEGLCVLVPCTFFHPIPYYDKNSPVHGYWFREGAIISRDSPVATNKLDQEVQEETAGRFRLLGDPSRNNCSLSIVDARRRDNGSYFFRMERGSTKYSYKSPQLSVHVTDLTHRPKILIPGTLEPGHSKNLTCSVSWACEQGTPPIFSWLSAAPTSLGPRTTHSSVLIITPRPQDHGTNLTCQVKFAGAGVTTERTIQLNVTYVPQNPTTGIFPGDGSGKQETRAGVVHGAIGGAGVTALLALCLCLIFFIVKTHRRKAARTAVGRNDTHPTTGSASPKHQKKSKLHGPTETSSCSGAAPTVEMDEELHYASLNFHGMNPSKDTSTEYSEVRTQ
Protocol: as §1, §2

human CD33 D18A = human CD33 D18A (human, UniProt P20138 19-364)
Protocol: as §1, §2

human CD33 E27A = human CD33 E27A (human, UniProt P20138 18-364)
Chain of human CD33 E27A (P20138 18-364 E27A limits assumed): as the sequence (P20138 18-364 Q87A limits assumed) above, with E10A, A70Q counted along it
Protocol: as §1, §2

human CD33 Y59A = human CD33 Y59A (human, UniProt P20138 18-364)
Chain of human CD33 Y59A (P20138 18-364 Y59A limits assumed): as the sequence (P20138 18-364 Q87A limits assumed) above, with Y42A, A70Q counted along it
Protocol: as §1, §2

human CD33 L23A = human CD33 L23A (human, UniProt P20138 18-364)
Protocol: as §1, §2

human CD33 R69A = human CD33 R69A (human, UniProt P20138 18-364)
Protocol: as §1, §2

human CD33 R62A = human CD33 R62A (human, UniProt P20138 18-364)
Protocol: as §1, §2

human CD33 H57A = human CD33 H57A (human, UniProt P20138 18-364)
Protocol: as §1, §2

human CD33 V25A = human CD33 V25A (human, UniProt P20138 18-364)
Protocol: as §1, §2

human CD33 P40A = human CD33 P40A (human, UniProt P20138 18-364)
Protocol: as §1, §2

human CD33 L35A = human CD33 L35A (human, UniProt P20138 18-364)
Protocol: as §1, §2

human CD33 G58A = human CD33 G58A (human, UniProt P20138 18-364)
Protocol: as §1, §2

human CD33 A74S = human CD33 A74S (human, UniProt P20138 18-364)
Protocol: as §1, §2

human CD33 I67A = human CD33 I67A (human, UniProt P20138 18-364)
Protocol: as §1, §2

human CD33 A65S = human CD33 A65S (human, UniProt P20138 18-364)
Chain of human CD33 A65S (P20138 18-364 A65S limits assumed): as the sequence (P20138 18-364 Q87A limits assumed) above, with A48S, A70Q counted along it
Protocol: as §1, §2

human CD33 R89A = human CD33 R89A (human, UniProt P20138 18-364)
Protocol: as §1, §2

human CD33 K77A = human CD33 K77A (human, UniProt P20138 18-364)
Protocol: as §1, §2

human CD33 T42A = human CD33 T42A (human, UniProt P20138 18-364)
Protocol: as §1, §2

human CD33 H45A = human CD33 H45A (human, UniProt P20138 18-364)
Chain of human CD33 H45A (P20138 18-364 H45A limits assumed): as the sequence (P20138 18-364 Q87A limits assumed) above, with H28A, A70Q counted along it
Protocol: as §1, §2

human CD33 W60A = human CD33 W60A (human, UniProt P20138 18-364)
Chain of human CD33 W60A (P20138 18-364 W60A limits assumed): as the sequence (P20138 18-364 Q87A limits assumed) above, with W43A, A70Q counted along it
Protocol: as §1, §2

human CD33 V31A = human CD33 V31A (human, UniProt P20138 18-364)
Protocol: as §1, §2

human CD33 I47A = human CD33 I47A (human, UniProt P20138 18-364)
Protocol: as §1, §2

human CD33 P48A = human CD33 P48A (human, UniProt P20138 18-364)
Chain of human CD33 P48A (P20138 18-364 P48A limits assumed): as the sequence (P20138 18-364 Q87A limits assumed) above, with P31A, A70Q counted along it
Protocol: as §1, §2

human CD33 W22A = human CD33 W22A (human, UniProt P20138 18-364)
Protocol: as §1, §2

human CD33 E81A = human CD33 E81A (human, UniProt P20138 18-364)
Protocol: as §1, §2

human CD33 E84A = human CD33 E84A (human, UniProt P20138 18-364)
Chain of human CD33 E84A (P20138 18-364 E84A limits assumed): as the sequence (P20138 18-364 Q87A limits assumed) above, with E67A, A70Q counted along it
Protocol: as §1, §2

human CD33 V56A = human CD33 V56A (human, UniProt P20138 18-364)
Protocol: as §1, §2

human CD33 P46A = human CD33 P46A (human, UniProt P20138 18-364)
Protocol: as §1, §2

human CD33 S28A = human CD33 S28A (human, UniProt P20138 18-364)
Chain of human CD33 S28A (P20138 18-364 S28A limits assumed): as the sequence (P20138 18-364 Q87A limits assumed) above, with S11A, A70Q counted along it
Protocol: as §1, §2

human CD33 L92A = human CD33 L92A (human, UniProt P20138 18-364)
Chain of human CD33 L92A (P20138 18-364 L92A limits assumed): as the sequence (P20138 18-364 Q87A limits assumed) above, with A70Q, L75A counted along it
Protocol: as §1, §2

human CD33 N76A = human CD33 N76A (human, UniProt P20138 18-364)
Chain of human CD33 N76A (P20138 18-364 N76A limits assumed): as the sequence (P20138 18-364 Q87A limits assumed) above, with N59A, A70Q counted along it
Protocol: as §1, §2

human CD33 F90A = human CD33 F90A (human, UniProt P20138 18-364)
Protocol: as §1, §2

human CD33 V73A = human CD33 V73A (human, UniProt P20138 18-364)
Protocol: as §1, §2

human CD33 E33A = human CD33 E33A (human, UniProt P20138 18-364)
Protocol: as §1, §2

human CD33 E63A = human CD33 E63A (human, UniProt P20138 18-364)
Chain of human CD33 E63A (P20138 18-364 E63A limits assumed): as the sequence (P20138 18-364 Q87A limits assumed) above, with E46A, A70Q counted along it
Protocol: as §1, §2

human CD33 Y50A = human CD33 Y50A (human, UniProt P20138 18-364)
Protocol: as §1, §2

human CD33 D51A = human CD33 D51A (human, UniProt P20138 18-364)
Chain of human CD33 D51A (P20138 18-364 D51A limits assumed): as the sequence (P20138 18-364 Q87A limits assumed) above, with D34A, A70Q counted along it
Protocol: as §1, §2

human CD33 P72A = human CD33 P72A (human, UniProt P20138 18-364)
Protocol: as §1, §2

human CD33 K52A = human CD33 K52A (human, UniProt P20138 18-364)
Protocol: as §1, §2

human CD33 P19A = human CD33 P19A (human, UniProt P20138 18-364)
Chain of human CD33 P19A (P20138 18-364 P19A limits assumed): as the sequence (P20138 18-364 Q87A limits assumed) above, with P2A, A70Q counted along it
Protocol: as §1, §2

B1: Refmab #2 (antibody, V domains shown)
VH: QVQLVQSGAEVKKPGSSVKVSCKASGGTFSDYAISWVRQAPGQGLEWMGRIIPILGVADYAQKFQGRVTITADKSTRTAYMELSSLRSEDTAVYYCARNWADAFDIWGQGTMVTVSS
VL: DIQLTQSPSSLSASVGDRVTITCRASQGISSVLAWYQQKPGKAPKLLIYDASSLESGVPSRFSGSGSGTDFTLTISSLQPEDFATYYCQQFDSSITFGQGTKLEIK
notes: Full-length format is human IgG1 Fc silent (PG-LALA); The alanine scan used IgG or Fab
- Mean % WT Binding (human CD33 V82A): 116 % WT
- Mean % WT Binding (human CD33 E85A): 114 % WT
- Mean % WT Binding (human CD33 Q87A): 118 % WT
- Mean % WT Binding (human CD33 D18A): 119 % WT
- Mean % WT Binding (human CD33 E27A): 111 % WT
- Mean % WT Binding (human CD33 Y59A): 95.7 % WT
- Mean % WT Binding (human CD33 L23A): 83.4 % WT
- Mean % WT Binding (human CD33 R69A): 138 % WT
- Mean % WT Binding (human CD33 R62A): 124 % WT
- Mean % WT Binding (human CD33 H57A): 112 % WT
- Mean % WT Binding (human CD33 V25A): 87.1 % WT
- Mean % WT Binding (human CD33 P40A): 101 % WT
- Mean % WT Binding (human CD33 L35A): 119 % WT
- Mean % WT Binding (human CD33 G58A): 118 % WT
- Mean % WT Binding (human CD33 A74S): 91.7 % WT
- Mean % WT Binding (human CD33 I67A): 122 % WT
- Mean % WT Binding (human CD33 A65S): 112 % WT
- Mean % WT Binding (human CD33 R89A): 98.7 % WT
- Mean % WT Binding (human CD33 K77A): 123 % WT
- Mean % WT Binding (human CD33 T42A): 112 % WT
- Mean % WT Binding (human CD33 H45A): 73.6 % WT
- Mean % WT Binding (human CD33 W60A): 2.8 % WT
- Mean % WT Binding (human CD33 V31A): 106 % WT
- Mean % WT Binding (human CD33 I47A): 2.1 % WT
- Mean % WT Binding (human CD33 P48A): 109 % WT
- Mean % WT Binding (human CD33 W22A): 110 % WT
- Mean % WT Binding (human CD33 E81A): 107 % WT
- Mean % WT Binding (human CD33 E84A): 114 % WT
- Mean % WT Binding (human CD33 V56A): 80.7 % WT
- Mean % WT Binding (human CD33 P46A): 104 % WT
- Mean % WT Binding (human CD33 S28A): 117 % WT
- Mean % WT Binding (human CD33 L92A): 106 % WT
- Mean % WT Binding (human CD33 N76A): 106 % WT
- Mean % WT Binding (human CD33 F90A): 104 % WT
- Mean % WT Binding (human CD33 V73A): 99.1 % WT
- Mean % WT Binding (human CD33 E33A): 120 % WT
- Mean % WT Binding (human CD33 E63A): 107 % WT
- Mean % WT Binding (human CD33 Y50A): 141 % WT
- Mean % WT Binding (human CD33 D51A): 59 % WT
- Mean % WT Binding (human CD33 P72A): 114 % WT
- Mean % WT Binding (human CD33 K52A): 94.9 % WT
- Mean % WT Binding (human CD33 P19A): 111 % WT

B2: Refmab #1 (antibody, V domains shown)
VH: EVQLVQSGAEVKKPGSSVKVSCKASGYTITDSNIHWVRQAPGQSLEWIGYIYPYNGGTDYNQKFKNRATLTVDNPTNTAYMELSSLRSEDTAFYYCVNGNPWLAYWGQGTLVTVSS
VL: DIQLTQSPSTLSASVGDRVTITCRASESLDNYGIRFLTWFQQKPGKAPKLLMYAASNQGSGVPSRFSGSGSGTEFTLTISSLQPDDFATYYCQQTKEVPWSFGQGTKVEVK
notes: Full-length format is human IgG1 (Absolute Antibody Ab00283-10.0); The alanine scan used IgG or Fab; also called hP67.6
- Mean % WT Binding (human CD33 V82A): 99.6 % WT
- Mean % WT Binding (human CD33 E85A): 88.9 % WT
- Mean % WT Binding (human CD33 Q87A): 91 % WT
- Mean % WT Binding (human CD33 D18A): 78.6 % WT
- Mean % WT Binding (human CD33 E27A): 82.5 % WT
- Mean % WT Binding (human CD33 Y59A): 93.6 % WT
- Mean % WT Binding (human CD33 L23A): 82.7 % WT
- Mean % WT Binding (human CD33 R69A): 94.2 % WT
- Mean % WT Binding (human CD33 R62A): 121 % WT
- Mean % WT Binding (human CD33 H57A): 78.2 % WT
- Mean % WT Binding (human CD33 V25A): 90.7 % WT
- Mean % WT Binding (human CD33 P40A): 74.5 % WT
- Mean % WT Binding (human CD33 L35A): 89.1 % WT
- Mean % WT Binding (human CD33 G58A): 77.4 % WT
- Mean % WT Binding (human CD33 A74S): 83.7 % WT
- Mean % WT Binding (human CD33 I67A): 98.1 % WT
- Mean % WT Binding (human CD33 A65S): 88.5 % WT
- Mean % WT Binding (human CD33 R89A): 77.6 % WT
- Mean % WT Binding (human CD33 K77A): 95.6 % WT
- Mean % WT Binding (human CD33 T42A): 105 % WT
- Mean % WT Binding (human CD33 H45A): 38.7 % WT
- Mean % WT Binding (human CD33 W60A): 0.7 % WT
- Mean % WT Binding (human CD33 V31A): 87 % WT
- Mean % WT Binding (human CD33 I47A): 84.2 % WT
- Mean % WT Binding (human CD33 P48A): 86.2 % WT
- Mean % WT Binding (human CD33 W22A): 79.4 % WT
- Mean % WT Binding (human CD33 E81A): 83 % WT
- Mean % WT Binding (human CD33 E84A): 92.2 % WT
- Mean % WT Binding (human CD33 V56A): 94.3 % WT
- Mean % WT Binding (human CD33 P46A): 64.8 % WT
- Mean % WT Binding (human CD33 S28A): 93.9 % WT
- Mean % WT Binding (human CD33 L92A): 75.2 % WT
- Mean % WT Binding (human CD33 N76A): 61.8 % WT
- Mean % WT Binding (human CD33 F90A): 73.9 % WT
- Mean % WT Binding (human CD33 V73A): 73.6 % WT
- Mean % WT Binding (human CD33 E33A): 86.4 % WT
- Mean % WT Binding (human CD33 E63A): 107 % WT
- Mean % WT Binding (human CD33 Y50A): 86 % WT
- Mean % WT Binding (human CD33 D51A): 82.4 % WT
- Mean % WT Binding (human CD33 P72A): 99.9 % WT
- Mean % WT Binding (human CD33 K52A): 84.2 % WT
- Mean % WT Binding (human CD33 P19A): 80.8 % WT
